Changes are numbered by the printed parent chain.
B1: hCE115HAuPA27/GLS//GCH065 (bispecific antibody, human IgG1, kappa, N297A)
heavy 1: QDGNEEMGGITQTPYKVSISGTTVILTLSGRSDNHQVQLVESGGGVVQPGRSLRLSCAASGFTFSNAWMHWVRQAPGKGLEWVAQIKAKSNNYATYYAESVKGRFTISRDDSKNSLYLQMNSLKTEDTAVYYCRYVHYGAYYGVDAWGQGTTVTVSSASTKGPSVFPLAPSSKSTSGGTAALGCLVKDYFPEPVTVSWNSGALTSGVHTFPAVLQSSGLYSLSSVVTVPSSSLGTQTYICNVNHKPSNTKVDKKVEPKSCDKTHTCPPCPAPELRGGPKVFLFPPKPKDTLMISRTPEVTCVVVDVSHEDPEVKFNWYVDGVEVHNAKTKPREEQYASTYRVVSVLTVLHQDWLNGKEYKCKVSNKALPAPIEKTISKAKGQPREPQVYTLPPSRKEMTKNQVSLTCLVKGFYPSDIAVEWESNGQPENNYKTTPPYLDSDGSFFLYSKLTVDKSRWQQGNVFSCSVMHEALHNHYTQKSLSLSP
light 1: DIVMTQSPLSLPVTPGEPASISCRSSQSLVHSNRNTYLHWYQQKPGQAPRLLIYKVSNRFSGVPDRFSGSGSGTDFTLKISRVEAEDVGVYYCGQGTQVPYTFGQGTKLEIKRTVAAPSVFIFPPSDEQLKSGTASVVCLLNNFYPREAKVQWKVDNALQSGNSQESVTEQDSKDSTYSLSSTLTLSKADYEKHKVYACEVTHQGLSSPVTKSFNRGEC
heavy 2: QVQLVQSGAEVKKPGASVTVSCKASGYTFTDYEMHWIRQPPGEGLEWIGAIDGPTPDTAYSEKFKGRVTLTADKSTSTAYMELSSLTSEDTAVYYCTRFYSYTYWGQGTLVTVSSASTKGPSVFPLAPSSKSTSGGTAALGCLVKDYFPEPVTVSWNSGALTSGVHTFPAVLQSSGLYSLSSVVTVPSSSLGTQTYICNVNHKPSNTKVDKKVEPKSCDKTHTCPPCPAPELRGGPKVFLFPPKPKDTLMISRTPEVTCVVVDVSHEDPEVKFNWYVDGVEVHNAKTKPREEQYASTYRVVSVLTVLHQDWLNGKEYKCKVSNKALPAPIEKTISKAKGQPREPQVYTLPPSREEMTKNQVSLTCLVKGFYPSDIAVEWESNGQPENNYKTTPPYLDSDGSFFLYSKLTVDKSRWQQGNVFSCSVMHEALHNHYTQESLSLSP
light 2: B1 light 1 with S28P
B2: ANuPA04/GLS//GCH065 (bispecific antibody, human IgG1, kappa, N297A)
heavy 1: QDGNEEMGGGSGGGSGGGSLSGRSDNHGGGSQVQLVESGGGLVQPGRSLRLSCAASGFTFSNAWMHWVRQAPGKGLEWVAQIKDKANGYNAYYAESVKGRFTISRDDSKNSIYLQMNSLKTEDTAVYYCRYVHYTTYAGFSYKFGVDAWGQGTTVTVSSASTKGPSVFPLAPSSKSTSGGTAALGCLVKDYFPEPVTVSWNSGALTSGVHTFPAVLQSSGLYSLSSVVTVPSSSLGTQTYICNVNHKPSNTKVDKKVEPKSCDKTHTCPPCPAPELRGGPKVFLFPPKPKDTLMISRTPEVTCVVVDVSHEDPEVKFNWYVDGVEVHNAKTKPREEQYASTYRVVSVLTVLHQDWLNGKEYKCKVSNKALPAPIEKTISKAKGQPREPQVYTLPPSRKEMTKNQVSLTCLVKGFYPSDIAVEWESNGQPENNYKTTPPYLDSDGSFFLYSKLTVDKSRWQQGNVFSCSVMHEALHNHYTQKSLSLSP
light 1: B1 light 1
heavy 2: B1 heavy 2
light 2: B1 light 1 with S28P
B3: ANuPA20/GLS//GCH065 (bispecific antibody, human IgG1, kappa, N297A)
heavy 1: QDGNEEMGGITQTPYKVSISLSGRSDNHGGGSQVQLVESGGGLVQPGRSLRLSCAASGFTFSNAWMHWVRQAPGKGLEWVAQIKDKANGYNAYYAESVKGRFTISRDDSKNSIYLQMNSLKTEDTAVYYCRYVHYTTYAGFSYKFGVDAWGQGTTVTVSSASTKGPSVFPLAPSSKSTSGGTAALGCLVKDYFPEPVTVSWNSGALTSGVHTFPAVLQSSGLYSLSSVVTVPSSSLGTQTYICNVNHKPSNTKVDKKVEPKSCDKTHTCPPCPAPELRGGPKVFLFPPKPKDTLMISRTPEVTCVVVDVSHEDPEVKFNWYVDGVEVHNAKTKPREEQYASTYRVVSVLTVLHQDWLNGKEYKCKVSNKALPAPIEKTISKAKGQPREPQVYTLPPSRKEMTKNQVSLTCLVKGFYPSDIAVEWESNGQPENNYKTTPPYLDSDGSFFLYSKLTVDKSRWQQGNVFSCSVMHEALHNHYTQKSLSLSP
light 1: B1 light 1
heavy 2: B1 heavy 2
light 2: B1 light 1 with S28P
B4: ANuPA27/GLS//GCH065 (bispecific antibody, human IgG1, kappa, N297A)
heavy 1: QDGNEEMGGITQTPYKVSISGTTVILTLSGRSDNHQVQLVESGGGLVQPGRSLRLSCAASGFTFSNAWMHWVRQAPGKGLEWVAQIKDKANGYNAYYAESVKGRFTISRDDSKNSIYLQMNSLKTEDTAVYYCRYVHYTTYAGFSYKFGVDAWGQGTTVTVSSASTKGPSVFPLAPSSKSTSGGTAALGCLVKDYFPEPVTVSWNSGALTSGVHTFPAVLQSSGLYSLSSVVTVPSSSLGTQTYICNVNHKPSNTKVDKKVEPKSCDKTHTCPPCPAPELRGGPKVFLFPPKPKDTLMISRTPEVTCVVVDVSHEDPEVKFNWYVDGVEVHNAKTKPREEQYASTYRVVSVLTVLHQDWLNGKEYKCKVSNKALPAPIEKTISKAKGQPREPQVYTLPPSRKEMTKNQVSLTCLVKGFYPSDIAVEWESNGQPENNYKTTPPYLDSDGSFFLYSKLTVDKSRWQQGNVFSCSVMHEALHNHYTQKSLSLSP
light 1: B1 light 1
heavy 2: B1 heavy 2
light 2: B1 light 1 with S28P
B5: hCE115HA/GLSGS//GCH065 (bispecific antibody, human IgG1, kappa, N297A)
heavy 1: QVQLVESGGGVVQPGRSLRLSCAASGFTFSNAWMHWVRQAPGKGLEWVAQIKAKSNNYATYYAESVKGRFTISRDDSKNSLYLQMNSLKTEDTAVYYCRYVHYGAYYGVDAWGQGTTVTVSSASTKGPSVFPLAPSSKSTSGGTAALGCLVKDYFPEPVTVSWNSGALTSGVHTFPAVLQSSGLYSLSSVVTVPSSSLGTQTYICNVNHKPSNTKVDKKVEPKSCDKTHTCPPCPAPELRGGPKVFLFPPKPKDTLMISRTPEVTCVVVDVSHEDPEVKFNWYVDGVEVHNAKTKPREEQYASTYRVVSVLTVLHQDWLNGKEYKCKVSNKALPAPIEKTISKAKGQPREPQVYTLPPSRKEMTKNQVSLTCLVKGFYPSDIAVEWESNGQPENNYKTTPPYLDSDGSFFLYSKLTVDKSRWQQGNVFSCSVMHEALHNHYTQKSLSLSP
light 1: QDGNEGGGSGGGSGGGSDIVMTQSPLSLPVTPGEPASISCRSSQSLVHSNRNTYLHWYQQKPGQAPRLLIYKVSNRFSGVPDRFSGSGSGTDFTLKISRVEAEDVGVYYCGQGTQVPYTFGQGTKLEIKRTVAAPSVFIFPPSDEQLKSGTASVVCLLNNFYPREAKVQWKVDNALQSGNSQESVTEQDSKDSTYSLSSTLTLSKADYEKHKVYACEVTHQGLSSPVTKSFNRGEC
heavy 2: B1 heavy 2
light 2: B1 light 1 with S28P
B6: hCE115HA/GLSuPA04//GCH065 (bispecific antibody, human IgG1, kappa, N297A)
heavy 1: B5 heavy 1
light 1: QDGNEEMGGGSGGGSGGGSLSGRSDNHGGGSDIVMTQSPLSLPVTPGEPASISCRSSQSLVHSNRNTYLHWYQQKPGQAPRLLIYKVSNRFSGVPDRFSGSGSGTDFTLKISRVEAEDVGVYYCGQGTQVPYTFGQGTKLEIKRTVAAPSVFIFPPSDEQLKSGTASVVCLLNNFYPREAKVQWKVDNALQSGNSQESVTEQDSKDSTYSLSSTLTLSKADYEKHKVYACEVTHQGLSSPVTKSFNRGEC
heavy 2: B1 heavy 2
light 2: B1 light 1 with S28P
B7: AN/GLS//GCH065 (bispecific antibody, human IgG1, kappa, N297A)
heavy 1: QVQLVESGGGLVQPGRSLRLSCAASGFTFSNAWMHWVRQAPGKGLEWVAQIKDKANGYNAYYAESVKGRFTISRDDSKNSIYLQMNSLKTEDTAVYYCRYVHYTTYAGFSYKFGVDAWGQGTTVTVSSASTKGPSVFPLAPSSKSTSGGTAALGCLVKDYFPEPVTVSWNSGALTSGVHTFPAVLQSSGLYSLSSVVTVPSSSLGTQTYICNVNHKPSNTKVDKKVEPKSCDKTHTCPPCPAPELRGGPKVFLFPPKPKDTLMISRTPEVTCVVVDVSHEDPEVKFNWYVDGVEVHNAKTKPREEQYASTYRVVSVLTVLHQDWLNGKEYKCKVSNKALPAPIEKTISKAKGQPREPQVYTLPPSRKEMTKNQVSLTCLVKGFYPSDIAVEWESNGQPENNYKTTPPYLDSDGSFFLYSKLTVDKSRWQQGNVFSCSVMHEALHNHYTQKSLSLSP
light 1: B1 light 1
heavy 2: B1 heavy 2
light 2: B1 light 1 with S28P
B8: ANGS/GLS//GCH065 (bispecific antibody, human IgG1, kappa, N297A)
heavy 1: QDGNEGGGSGGGSQVQLVESGGGLVQPGRSLRLSCAASGFTFSNAWMHWVRQAPGKGLEWVAQIKDKANGYNAYYAESVKGRFTISRDDSKNSIYLQMNSLKTEDTAVYYCRYVHYTTYAGFSYKFGVDAWGQGTTVTVSSASTKGPSVFPLAPSSKSTSGGTAALGCLVKDYFPEPVTVSWNSGALTSGVHTFPAVLQSSGLYSLSSVVTVPSSSLGTQTYICNVNHKPSNTKVDKKVEPKSCDKTHTCPPCPAPELRGGPKVFLFPPKPKDTLMISRTPEVTCVVVDVSHEDPEVKFNWYVDGVEVHNAKTKPREEQYASTYRVVSVLTVLHQDWLNGKEYKCKVSNKALPAPIEKTISKAKGQPREPQVYTLPPSRKEMTKNQVSLTCLVKGFYPSDIAVEWESNGQPENNYKTTPPYLDSDGSFFLYSKLTVDKSRWQQGNVFSCSVMHEALHNHYTQKSLSLSP
light 1: B1 light 1
heavy 2: B1 heavy 2
light 2: B1 light 1 with S28P

biological target: CD3 on NFAT-RE-luc2-Jurkat cells (human, UniProt P07766 23-207); test: cell-based or functional assay
Sequence (P07766 23-207): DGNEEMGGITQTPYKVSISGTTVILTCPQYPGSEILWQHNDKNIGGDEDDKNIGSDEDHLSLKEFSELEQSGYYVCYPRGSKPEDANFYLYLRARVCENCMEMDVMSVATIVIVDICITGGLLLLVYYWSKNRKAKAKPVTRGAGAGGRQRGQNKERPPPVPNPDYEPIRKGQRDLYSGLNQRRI

Row | increase rate due to the protease treatment (luciferase, uPA-treated / untreated), antibody 0.1 nM | increase rate due to the protease treatment (luciferase, uPA-treated / untreated), antibody 1 nM | Binder
1 | 0.9 ratio | 1.4 ratio | B1
2 | 1.9 ratio | 3 ratio | B2
3 | 1.5 ratio | 2.2 ratio | B3
4 | 0.9 ratio | 0.9 ratio | B4
5 | 1 ratio | 0.9 ratio | B5
6 | 1.1 ratio | 8.2 ratio | B6
7 | 0.6 ratio | 0.7 ratio | B7
8 | 1 ratio | 1 ratio | B8
